Test system: T1, bifurcating NADP Fe-only hydrogenase of C. autoethanogenum
T1 sequence: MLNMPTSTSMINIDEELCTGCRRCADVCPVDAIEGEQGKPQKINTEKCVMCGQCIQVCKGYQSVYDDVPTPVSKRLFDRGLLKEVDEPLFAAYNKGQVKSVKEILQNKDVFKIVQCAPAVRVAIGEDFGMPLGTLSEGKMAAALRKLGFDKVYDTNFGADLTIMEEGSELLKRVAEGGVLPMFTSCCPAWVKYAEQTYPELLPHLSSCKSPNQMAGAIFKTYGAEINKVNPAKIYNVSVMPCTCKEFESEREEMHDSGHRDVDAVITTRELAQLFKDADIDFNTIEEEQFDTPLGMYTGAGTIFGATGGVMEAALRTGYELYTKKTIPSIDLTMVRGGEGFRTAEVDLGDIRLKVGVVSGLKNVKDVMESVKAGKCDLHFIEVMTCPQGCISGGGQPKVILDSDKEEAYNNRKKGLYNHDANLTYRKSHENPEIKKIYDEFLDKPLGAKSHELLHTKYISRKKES

bifurcating NADP formate dehydrogenase of C. autoethanogenum
Formate-hydrogen lyase activity (using H2): a high activity of 2.4 U/mg was detected
